For this experiment, the target named is T1, radiolabeled agitoxin2 (D20C conjugated with tritiated N-ethylmaleimide) (Leiurus quinquestriatus hebraeus, UniProt P46111 1-38).
T1 construct: mature
Put plainly: filter binding assay with tritiated agitoxin2.

B1: wild type kcsa K+ channel from Streptomyces lividans (other)
chain: MPPMLSGLLARLVKLLLGRHGSALHWRAAGAATVLLVIVLLAGSYLAVLAERGAPGAQLITYPRALWWSVETATTVGYGDLYPVTLWGRLVAVVVMVAGITSFGLVTAALATWFVGREQERRGHFVRHSEKAAEEAYTRTTRALHERFDRLERMLDDN
On to B1, for which the binding result is given as “no binding”.

The values are drawn from patent US20050272093A1 (ROCKEFELLER UNIVERSITY, published 2005).
